The text below walks through data of paper PMC3145792.

This experiment has as its target SECRET domain (smallpox virus-encoded chemokine receptor domain) of the vTNFR CrmD encoded by ectrom (ectromelia virus). Description: crystal structure.

In general, stoichiometry N refers to a count of units in the complex or per binding partner.

In turn, “chemokine domain of human CX3CL1 (residues 1-76) (from UniProt P78423 25-100) (domain or fragment)” displayed a stoichiometry N of 1.
